{"source": "patent US20190218302A1", "about": "“ANTI-CANCER COMBINATION TREATMENT” (PROBIOCON GMBH, priority 2016, published 2019)", "key": {"[1]": {"system": "RANK expressing PBMC of a patient suffering from AML (94% blasts)", "experiment": "Chemotherapy resistance model, PBMC of an AML patient, flow cytometry (7AAD and Annexin-V-PE)", "type": "cell-based, human", "experimental": "FIG. 1: RANKL mediates resistance of malignant cells to chemotherapeutic treatment. Blood of a patient suffering from acute myeloid leukemia (AML) containing 94% blasts (leukemic cells) was obtained at time of diagnosis prior to treatment and peripheral blood mononuclear cells (PBMC) were isolated by density gradient centrifugation. PBMC were cultured in the presence or absence of doxorubicin (dox, 1 μM) and/or soluble RANKL (sRANKL, 500 ng/ml) as indicated.\nRANK expressing PBMC of a patient suffering from AML (French-American-British (FAB) classification: M4; 94% peripheral blood blasts) were subjected to a model of chemotherapyresistance (FIG. 1). To this end, patient blood was obtained at time of diagnosis prior to treatment and PBMC were isolated by density gradient centrifugation. […] Since AML cells of the FAB type M4 resemble monocyte-like cells, this experiment is in line with studies in healthy monocytes showing that sRANKL (Seshasayee et al. 2004, Jour Biol Chem, 279(29):30202-9) acts as a pro-survival factor, likely due to upregulation of anti-apoptotic BCL-2 proteins."}, "[2]": {"system": "A2780 ovarian cancer cells", "experiment": "Viability of tumor cells cultured with platelets and Denosumab, ATP content (CellTiter-Glo)", "type": "cell-based, human", "conditions": "platelets plus Denosumab, 96 h; doxorubicin for the last 24 h", "experimental": "(§1) A2780 ovarian cancer cells (left) and MCF10A breast cancer cells (right) were employed as model to study the influence of RANKL and its neutralization on chemotherapy resistance. To this end, 30,000 tumor cells were cultured in the presence or absence of platelets and Denosumab for 96 h. The indicated concentrations of doxorubicin (left) or paclitaxel (right) were added for the last 24 h. Then cell viability was determined by analysis of ATP content of each sample (CellTiter-Glo assay, Promega). Values obtained with untreated tumor cells were set to 1.\n(§2) To assess the role of pRANKL in the context of systemic treatment, the viability of ovarian and breast cancer cells was analyzed. Cells were incubated with human platelets in the presence or absence of Denosumab to neutralize pRANKL which mimics the situation in cancer patients. Presence of platelets enhanced the viability/cellular activity of tumor cells already without chemotherapeutic treatment, and the same was observed upon chemotherapeutic treatment."}, "[3]": {"system": "MCF10A breast cancer cells", "experiment": "Viability of tumor cells cultured with platelets and Denosumab, ATP content (CellTiter-Glo)", "type": "cell-based, human", "conditions": "platelets plus Denosumab, 96 h; paclitaxel for the last 24 h", "experimental": "as §1, §2"}, "[4]": {"system": "MCF10A breast cancer cells", "experiment": "MCF10A breast cancer cells with sRANKL, Denosumab and paclitaxel, flow cytometry with 7AAD", "type": "cell-based, human", "conditions": "48 h, paclitaxel 10 nM added after 24 h", "experimental": "FIG. 2: Blockade of RANKL by Denosumab overcomes resistance to chemotherapeutic treatment. MCF10A breast tumor cells were cultured for 48 h in the presence or absence of sRANKL (100 ng/ml) and/or Denosumab (20 μg/ml) as indicated. After the first 24 h of culture, paclitaxel (10 nM) was added where indicated. Then the percentage of living and dead cells was determined using flow cytometry with 7AAD.\nTo this end, it was evaluated if RANKL-induced chemoresistance could be overcome by application of a RANKL-inhibitor in the form of the approved RANKL antibody Denosumab. Therefore, MCF10A breast cancer cells were cultured for 48 h in the presence or absence of sRANKL (100 ng/ml, Immunotools) and Denosumab (20 μg/ml, Amgen) as indicated. After 24 h of culture, paclitaxel (10 nM, Taxomedac) representing a first line breast cancer therapeutic agent, was added where indicated."}, "melanoma metastasis": {"system": "melanoma metastasis", "conditions": "Jones et al., Nature 2006, cited from earlier work"}, "[5]": {"system": "SKBR3 breast cancer cell line", "conditions": "Schramek et al., Nature 2010; cited from earlier work"}}}
{"molecule": "COc1cccc2c1C(=O)c1c(O)c3c(c(O)c1C2=O)C[C@@](O)(C(=O)CO)C[C@@H]3O[C@H]1C[C@H](N)[C@H](O)[C@H](C)O1", "note": "[doxorubicin, reference compound]", "values": [{"measurement": "percentage of early apoptotic and dead cells compared to the control group", "setting": "[1]; doxorubicin 1 μM, 48 h of treatment", "result": "greatly enhanced"}, {"measurement": "amount of viable AML cells", "setting": "[1]; ex vivo cancer cell assay, doxorubicin applied", "result": "reduced"}]}
{"molecule": "Denosumab: fully human IgG2 monoclonal antibody specific to RANKL (Amgen); heavy chain SEQ ID 1, light chain SEQ ID 2", "values": [{"measurement": "protective effect of platelets on tumor cell viability", "setting": "[2]", "result": "substantially reduced"}, {"measurement": "protective effect of platelets on tumor cell viability", "setting": "[3]", "result": "substantially reduced"}, {"measurement": "effects of chemotherapeutic treatment upon RANKL neutralization (chemosensitivity)", "setting": "[4]; Denosumab 20 μg/ml with sRANKL 100 ng/ml", "result": "restores and even increases the effects of chemotherapeutic treatment"}]}
{"molecule": "osteoprotegerin: used for in vivo neutralization of RANKL in a mouse model of melanoma metastasis (protein, UniProt O00300 22-401, looked up) Tumor necrosis factor …: ETFPPKYLHYDEETSHQLLCDKCPPGTYLKQHCTAKWKTVCAPCPDHYYTDSWHTSDECLYCSPVCKELQYVKQECNRTHNRVCECKEGRYLEIEFCLKHRSCPPGFGVVQAGTPERNTVCKRCPDGFFSNETSSKAPCRKHTNCSVFGLLLTQKGNATHDNICSGNSESTQKCGIDVTLCEEAFFRFAVPTKFTPNWLSVLVDNLPGTKVNAESVERIKRQHSSQEQTFQLLKLWKHQNKDQDIVKKIIQDIDLCENSVQRHIGHANLTFEQLRSLMESLPGKKVGAEDIEKTIKACKPSDQILKLLSLWRIKNGDQDTLKGLMHALKHSKTYHFPKTVTQSLKKTIRFLHSFTMYKLYQKLFLEMIGNQVQSVKISCL", "values": [{"measurement": "protection from paralysis", "setting": "melanoma metastasis", "result": "complete protection from paralysis"}, {"measurement": "tumor burden in bones", "setting": "melanoma metastasis; in bones, but not in other organs", "result": "marked reduction in tumor burden in bones"}]}
{"molecule": "sRANKL: recombinant human soluble RANKL, Immunotools, Germany (protein) EKAMVDGSWLDLAKRSKLEAQPFAHLTINATDIPSGSHKVSLSSWYHDRGWAKISNMTFSNGKLIVNQDGFYYLYANICFRHHETSGDLATEYLQLMVYVTKTSIKIPSSHTLMKGGSTKYWSGNSEFHFYSINVGGFFKLRSGEEISIEVSNPSLLDPDQDATYFGAFKVRDID", "values": [{"measurement": "protection of malignant cells from the effects of chemotherapeutic treatment", "setting": "[4]; sRANKL 100 ng/ml", "result": "protects the malignant cells from the effects of chemotherapeutic treatment"}, {"measurement": "effect of doxorubicin on the amount of viable AML cells in the presence of sRANKL", "setting": "[1]; ex vivo cancer cell assay, doxorubicin plus sRANKL", "result": "neutralized"}, {"measurement": "effect of chemotherapeutic treatment when sRANKL was added", "setting": "[1]; sRANKL 500 ng/ml added to doxorubicin 1 μM, 48 h", "result": "markedly reduced"}, {"measurement": "protection from apoptosis induced by doxorubicin", "setting": "[5]", "result": "protects the SKBR3 breast cancer cell line from apoptosis induced by doxorubicin"}]}
